Measured values from the supplement of paper PMC10126150.
± gives the standard deviation of the averaged measurements.

Tested on: ATP
Test: switch fluorescence ratio, 500 uM ATP over buffer (Cy3 cluster intensity, sum of 5 cycles each) (fold (ratio)); higher = stronger signal-on switching upon ATP binding; sequences stand for … in TCGTCGGCAGCGTCAGATGTGTATAAGAGACAGTTTTTTTTTTTTTTTTTTTTTTTTT…TC
Settings: aptamer strand: ATP DNA aptamer (quencher-CACCTGGGGGAGTATTGCGGAGGAAGG + anchor), 100 nM annealed; ATP concentration: 500 uM
Summary of the method: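 Clusters with intensities outside 100-1000 RFU were excluded. The remaining Cy3-labelled switching-strand clusters on a modified Illumina MiSeq flow-cell had been annealed to 100 nM quencher-labelled ATP aptamer and imaged in selection buffer, then after 15 min with 500 uM ATP at 22 °C, for five cycles separated by NaOH stripping and re-annealing. The fluorescence ratio, averaged per switch-domain sequence, is each cluster's summed target-cycle Cy3 intensity over its summed buffer-cycle Cy3 intensity.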
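Also: ATP exposure 15 min at 22 °C before imaging.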

Sequence | switch fluorescence ratio
TGGGCGAATC | 0.998 ± 0.014
TGGAAAACTT | 1.11 ± 0.16
TCGTTGTTAG | 0.992 ± 0.02
CTGGTGCGCG | 0.98 ± 0.032
TGTGGGTATT | 1.01 ± 0.028
GCTATTTTTC | 1 ± 0.042
GCGTAATATG | 1.16 ± 0.068
TGTACTTTTT | 1.02 ± 0.022
TTTAGGTTTG | 1 ± 0.066
TTGCATGGGC | 1.05 ± 0.063
GGTGCTGCTA | 0.984 ± 0.019
GAGGTGAGGG | 1 ± 0.057
AATTCTGGCT | 1.006 ± 0.0071
GAGGTGAGAG | 1.02 ± 0.058
AAGGTGGGGT | 1.03 ± 0.026
TGTTGTGGGT | 1.002 ± 0.0063
CGTAACTGTG | 1.07 ± 0.043
GAGGTGCGGT | 0.975 ± 0.049
GGTTCTGATC | 0.981 ± 0.01
TATATTAAAG | 0.976 ± 0.015
CCTGTTTGAG | 1.04 ± 0.11
AGTGGATTGT | 1.01 ± 0.046
TATAAAAATC | 1.07 ± 0.084

Sequence | switch fluorescence ratio
TACCTAGTGC | 1.035 ± 0.0016
TAAGTTTGTT | 0.997 ± 0.011
GTTTGTTCGC | 0.997 ± 0.076
TTTACTTTAT | 1.06 ± 0.044
GAAGGAAGGT | 0.9996 ± 0.007
TTGAGTTCGG | 0.986 ± 0.015
TAACGGCGGT | 0.978 ± 0.021
TTGTTATGTT | 0.971 ± 0.03
CGTTACGGGA | 1.02 ± 0.057
TAGATAATGG | 1.02 ± 0.014
CATTGTGTGA | 0.994 ± 0.021
TCCAGAACCC | 1 ± 0.011
TCACGTGGTT | 1.03 ± 0.016
GGGGATTTCT | 0.99526 ± 0.00079
CGCCCCTGGG | 1.13 ± 0.18
TATTAGGTAT | 0.961 ± 0.018
GCTTCTCTTA | 0.974 ± 0.013
GGTTATCCGG | 1.01 ± 0.032
TTATAATGGT | 1.02 ± 0.062
CCTTGGCTTT | 1.53 ± 0.11
TATGAAGCCC | 1.02 ± 0.039
TTAGTAGTGG | 0.974 ± 0.01
CTTTTACCAA | 0.992 ± 0.046

Sequence | switch fluorescence ratio
TTTTAAGAGT | 0.992 ± 0.028
AGTGCCGTAA | 1.025 ± 0.0056
TAGGGCTCAG | 0.9928 ± 0.0098
TCAAGTGCAG | 0.99 ± 0.027
GTGTTATTTT | 0.998 ± 0.053
ATCGATATAT | 0.991 ± 0.036
CGTCATTAAG | 0.9994 ± 0.0054
GGCGCATAGG | 1.11 ± 0.02
GGGTTCACGG | 1 ± 0.014
TTTAATACGG | 1.04 ± 0.011
GGCGCTTAGA | 1 ± 0.053
GGGGCTTGGC | 0.999 ± 0.031
ATGGGGGTCG | 0.98 ± 0.05
TGGTTATACT | 0.973 ± 0.052
CGTAACCCGT | 0.98 ± 0.033
TGTCGGTGTT | 0.971 ± 0.029
CGAGGAGGGC | 0.974 ± 0.019
TGTCTTAGGA | 0.999 ± 0.019
AGGAGGGGAG | 1.024 ± 0.0053
GGGGAGAATG | 0.9802 ± 0.0069
GAGCAGCTCG | 0.9995 ± 0.0059
AATGTGAGAC | 1.07 ± 0.073
TTGTGTTAGT | 0.958 ± 0.01

Sequence | switch fluorescence ratio
TCCCATGGCG | 1.04 ± 0.062
ATCGAAGGGG | 0.981 ± 0.065
TCAGCGTGTC | 0.9648 ± 0.0079
ACCCGCTTTT | 1.38 ± 0.31
ATGCACCTCG | 1.025 ± 0.006
AATAGGATAG | 1.02 ± 0.011
ATTACGTATT | 1.103 ± 0.0095
CATGGGGATT | 1.017 ± 0.0057
GAATGGAGCC | 0.995 ± 0.022
GGTCTACTAG | 0.999 ± 0.04
GTTGGAGGTT | 0.9921 ± 0.0052
TGGTCCTAGG | 1 ± 0.016
TTCATTCGCT | 1.52 ± 0.056
GGATAAGGAA | 0.9698 ± 0.0076
TGTAATTGCT | 0.999 ± 0.022
TTTGATTGTG | 1.03 ± 0.029
CGTATAATTT | 0.97555 ± 0.00021
TATATGGGAA | 0.998 ± 0.029
ATACAAGGGG | 1.03 ± 0.033
TGAAACCCTA | 1.03 ± 0.016
GATGTCGCGC | 1.01 ± 0.028
CGGACGTGAC | 2.79 ± 0.2
ATAATTAAGG | 0.99 ± 0.028

Sequence | switch fluorescence ratio
ATGTTGGCGT | 1 ± 0.011
TTTTAGGCAT | 1.01 ± 0.031
ACGTGTACGG | 1.03 ± 0.022
TAGCAATTAG | 2.45 ± 0.031
TTTTCGACGA | 1.27 ± 0.3
TCGTTTAGCA | 1.07 ± 0.029
TTTGAGACGG | 0.99 ± 0.019
AGGCTTATAT | 1.01 ± 0.024
AGATGGTACT | 0.9668 ± 4.6e-05
GTGTTTGGTT | 1.01 ± 0.053
GTACGACAAG | 1.11 ± 0.042
AAGGGGGGCA | 0.966 ± 0.037
TTGGCTTAGA | 1.001 ± 0.01
TAGTTTGAAT | 1.01 ± 0.024
AGGGATGGGG | 0.976 ± 0.016
TGAAAGGCTC | 1.1 ± 0.14
TTTGAATAGA | 0.992 ± 0.019
GGGCGTTGGG | 0.948 ± 0.059
ATTAAGCAT | 1.04 ± 0.053
TTTTTAGGGA | 0.99 ± 0.029
GGGGCTATTT | 1.01 ± 0.066
TTTATTTGG | 1.09 ± 0.12
TAATTAGGGA | 0.986 ± 0.044

Sequence | switch fluorescence ratio
TTGGACGGGT | 1.022 ± 0.008
CATTTATTCT | 0.9615 ± 0.0021
CAGGAAAGCT | 1.234 ± 0.0051
TTCAGCCATT | 1.01 ± 0.041
GAGTTGGAAG | 1.009 ± 0.0071
CTTAGCCTTT | 0.983 ± 0.016
GCCGGGATAG | 1.23 ± 0.35
GGTGAAGGTG | 1.355 ± 0.0092
TGGGGGCGGT | 0.996 ± 0.028
GGGGTGTGAA | 1.03 ± 0.059
TATGCATGTG | 0.996 ± 0.015
CACTGTGAAT | 1.009 ± 0.0024
TTCCATGTCG | 0.958 ± 0.02
ATTCCAGACG | 1.01 ± 0.024
GCAGGAATTC | 1.05 ± 0.042
CAGACGGGGG | 1.01 ± 0.026
GTTTTGCGAA | 0.9957 ± 0.0086
TTTTTAGCTG | 1.04 ± 0.058
TTCATGGGGC | 1.05 ± 0.086
TAAGGTTGGG | 0.993 ± 0.021
ATGGGTTTTT | 0.979 ± 0.029
GATAGAAAGC | 0.9852 ± 0.0027
TGAAGGTAAA | 1.02 ± 0.042

Sequence | switch fluorescence ratio
GAATTGGGCT | 0.9679 ± 0.0032
GGTTGTATGG | 0.975 ± 0.012
CACCCTGGTG | 4.51 ± 0.57
GCGGAGAAAT | 1.4 ± 0.3
TGACAGTCGT | 0.977 ± 0.024
AGAAGATCTA | 0.9942 ± 0.0081
AATAGAGGAT | 0.971 ± 0.039
CGTTAATCGT | 1.01 ± 0.021
GATGTTATAA | 1 ± 0.029
CTGAGGTTAT | 1.04 ± 0.038
AGGGATTTGT | 1.028 ± 0.003
AGTTGATCCC | 1.02 ± 0.025
GAATATTGTA | 0.988 ± 0.013
AAATCTTTAT | 1.01 ± 0.032
TTTTAATTAT | 1.05 ± 0.026
AATAGGCACC | 0.993 ± 0.018
GAGTCCAGGG | 1.21 ± 0.27
TAAACGGTCA | 1.07 ± 0.022
GGAATGGGTC | 0.9736 ± 0.0087
